What was measured:
Assay in all cases: purified protein
Format in all cases: biochemical, Homo sapiens
purified protein [1] = substrate: O=C1NC(=O)C(c2ccccc2)(c2ccccc2)N1; conditions: ATP held constant, ATP-dependent transport, MgCl2, pH 7.4, labelled compound
purified protein [2] = substrate: Nc1ncnc2c1ncn2[C@@H]1O[C@H](COP(=O)(O)OP(=O)(O)OP(=O)(O)O)[C@@H](O)[C@H]1O; conditions: co-substrate phenytoin held constant, MgCl2, pH 7.4
purified protein [3] = substrate: NC(=O)N1c2ccccc2C=Cc2ccccc21; conditions: ATP held constant, ATP-dependent transport, MgCl2, pH 7.4, labelled compound

B1: RLIP76 (Homo sapiens) (protein)
chain: MTECFLPPTSSPSEHRRVEHGSGLTRTPSSEEISPTKFPGLYRTGEPSPPHDILHEPPDVVSDDEKDHGKKKGKFKKKEKRTEGYAAFQEDSSGDEAESPSKMKRSKGIHVFKKPSFSKKKEKDFKIKEKPKEEKHKEEKHKEEKHKEKKSKDLTAADVVKQWKEKKKKKKPIQEPEVPQIDVPNLKPIFGIPLADAVERTMMYDGIRLPAVFRECIDYVEKYGMKCEGIYRVSGIKSKVDELKAAYDREESTNLEDYEPNTVASLLKQYLRDLPENLLTKELMPRFEEACGRTTETEKVQEFQRLLKELPECNYLLISWLIVHMDHVIAKELETKMNIQNISIVLSPTVQISNRVLYVFFTHVQELFGNVVLKQVMKPLRWSNMATMPTLPETQAGIKEEIRRQEFLLNCLHRDLQGGIKDLSKEERLWEVQRILTALKRKLREAKRQECETKIAQEIASLSKEDVSKEEMNENEEVINILLAQENEILTEQEELLAMEQFLRRQIASEKEEIERLRAEIAEIQSRQQHGRSETEEYSSESESESEDEEELQIILEDLQRQNEELEIKNNHLNQAIHEEREAIIELRVQLRLLQMQRAKAEQQAQEDEEPEWRGGAVQPPRDGVLEPKAAKEQPKAGKEPAKPSPSRDRKETSI
notes: pET30a(+), E. coli BL21(DE3); reconstituted in asolectin-cholesterol liposomes
Which results are given for B1?
Km (purified protein [1]): 0.43 µM; Km (purified protein [2]): 1330 µM; Km (purified protein [3]): 0.25 µM

— paper PMC1249579, “RLIP76, a non-ABC transporter, and drug resistance in epilepsy” (BMC Neuroscience, 2005)
